According to publication PMC3398583, “Functional Cloning and Expression of the Schizophyllum commune Glucuronoyl Esterase Gene and Characterization of the Recombinant Enzyme” (Biotechnology Research International, 2012):

Substrate: COC(=O)[C@H]1O[C@H](O[C@H]2[C@H](Oc3ccc([N+](=O)[O-])cc3)OC[C@@H](O)[C@@H]2O)[C@H](O)[C@@H](O)[C@@H]1OC
Experiment: purified protein
Assay type: biochemical, Schizophyllum commune
Details: 50 mM Na phosphate, pH 6.0, 0.08-0.4 mM substrate, 0.157 μM enzyme

B1: rScGE (recombinant Schizophyllum commune glucuronoyl esterase) (Schizophyllum commune H4-8) (protein)
chain: LSAALLAIAAFANVASAQDCDTPATVSGYSNSALPDPFTFNDGSPVTTAEDWECRRSQILALIQGYESGAAPPEPESVTGTASGNSLSVQVSYGGKSITFNNSITYPSGTAPAEGWPVIIAYEFPSLPIPSNVATLSFQNSAMGKQDSTSSRGQGLFYDLYGSSSNASAMTAWAWGVSRIIDAIESTPDAKLNPAAVGVTGCSRNGKGALMAGALEPRVALTLPQESGSGGDACWRLSRYEEQQGSQVQTATEIVGENCWFSAGFDQYVNNLDSLPYDHHLLAALVAPRGLISYANTDYVWLSGMSSFGCMTAAHAVYEALGVPENHGFEQVGGHSHCQWPSQLDGSLNAFINKFLLGQDVSTDYFESNNQFNGVTWSESQWINWETPTLN
notes: synthetic gene, all 393 residues except start Met (native signal peptide 1-19 in the construct); pGAPZalpha-A alpha-factor secretion, C-terminal myc and His tags; Pichia pastoris SMD1168; glycosylated, 53 kD (46 kD after N-glycosidase F)
Km: 250 µM | kcat: 9.27 s⁻¹
